Measurements reported in article PMC4812828 (Nature structural & molecular biology, 2016).

Target: T1, Mcm5 (S. cerevisiae, UniProt P29496 1-775)
T1 sequence: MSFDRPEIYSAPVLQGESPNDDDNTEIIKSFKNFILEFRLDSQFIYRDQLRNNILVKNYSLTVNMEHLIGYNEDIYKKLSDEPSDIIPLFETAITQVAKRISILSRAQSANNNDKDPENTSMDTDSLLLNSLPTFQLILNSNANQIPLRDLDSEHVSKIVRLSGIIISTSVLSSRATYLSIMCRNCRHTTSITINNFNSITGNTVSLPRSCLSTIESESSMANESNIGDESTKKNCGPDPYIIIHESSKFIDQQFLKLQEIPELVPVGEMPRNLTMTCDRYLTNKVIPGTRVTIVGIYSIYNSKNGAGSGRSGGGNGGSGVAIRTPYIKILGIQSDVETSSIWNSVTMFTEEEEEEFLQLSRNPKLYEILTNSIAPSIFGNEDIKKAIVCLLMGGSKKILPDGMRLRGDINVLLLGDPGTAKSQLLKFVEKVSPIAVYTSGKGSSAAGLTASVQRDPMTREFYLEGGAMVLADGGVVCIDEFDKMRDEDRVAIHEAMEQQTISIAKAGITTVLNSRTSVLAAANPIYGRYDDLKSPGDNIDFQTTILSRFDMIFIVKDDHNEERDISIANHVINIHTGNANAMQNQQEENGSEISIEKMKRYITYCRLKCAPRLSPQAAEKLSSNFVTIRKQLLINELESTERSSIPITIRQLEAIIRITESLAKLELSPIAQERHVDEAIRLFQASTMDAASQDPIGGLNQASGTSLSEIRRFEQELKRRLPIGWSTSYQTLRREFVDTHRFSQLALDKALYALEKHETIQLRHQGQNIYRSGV
Experiment: cryo-EM structure

B1: Psf3 (natural protein)
chain: MGYYDIDDVLADGTEFPCKFQYDIPGLGYLENNPGRPITKNTKLSLPLWLARILAIVGGDEALVDEEPVPFVELLPPDMFSTKVMNAIKTDPVALDLHSINSHFFSLAIKWIMLFSEKELANVVSELLLQRAQELNHHASSLSIDLNADSTGKNSANTNIATSTFLLKLEEMEKEIYKKSHESYKDTKRWMFKK
B1: binds.
